Data published in PMC3412936 (Journal of molecular biology, 2012).

T1: engineered WW1-WW2rw tandem domains of WWOX (human, UniProt Q9NZC7 16-91, E66R | Y85W)
T1 sequence (looked up): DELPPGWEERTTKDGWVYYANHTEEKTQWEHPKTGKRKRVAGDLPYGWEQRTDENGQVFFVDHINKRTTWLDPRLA

T2: WW1-WW2 tandem domains (residues 16-91) of human WWOX (human, UniProt Q9NZC7 16-91)
T2 sequence (looked up): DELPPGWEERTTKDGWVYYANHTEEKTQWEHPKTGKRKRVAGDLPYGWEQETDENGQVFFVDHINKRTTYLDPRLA

T3: WW1 domain (residues 16-50) of human WWOX (human, UniProt Q9NZC7 16-50)
T3 chain (looked up): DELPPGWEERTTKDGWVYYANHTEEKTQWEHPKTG


How the values were obtained:
Assay in all cases: ITC
[1] = target: T1, engineered WW1-WW2rw tandem domains of …
[2] = target: engineered WW2_RW domain of WWOX (E66R/Y85W double-mutant of WW2 domain) (human, UniProt Q9NZC7 57-91, E66R | Y85W)
[3] = target: T2, WW1-WW2 tandem domains (residues 16-91) …
[4] = target: T3, WW1 domain (residues 16-50) of human …

Kd [1] [µM]	dH [1] [kcal/mol]	stoichiometry N [1]	Kd [2] [µM]	dH [2] [kcal/mol]	Kd [3] [µM]	Kd [4] [µM]	dH [3] [kcal/mol]	stoichiometry N [3]	dH [4] [kcal/mol]	Binder
103	-8.66	1.07	80	-5.59	> 1000	> 1000				STFKPPAYEDVV [WBP1_PY1 peptide (12-mer spanning the PY1 PPXY motif of human WBP1)]
101	-10.1	2.02	123	-12.1	132	366	-9.85	0.99	-16.1	PGTPPPPYTVAP [WBP1_PY2 peptide (12-mer spanning the PY2 PPXY motif of human WBP1)]
86	-11.5	1.02	69	-8.44	326	> 1000	-3.36	1.03		VQPPPPPYPGPM [WBP2_PY2 peptide (12-mer spanning the PY2 PPXY motif of human WBP2)]
